Data as given in patent US20220143148A1, “COMPOSITIONS AND METHODS FOR MODULATING CGRP SIGNALING TO REGULATE INTESTINAL INNATE LYMPHOID CELLS” (The Broad Institute, Inc., priority 2019, published 2022).

Tested on: small intestinal immune cells
Experiment: Droplet-based scRNA-seq of small intestinal immune cells (LP and PP), OVA vs PBS, clustering and differential expression
Type: in vivo, mouse
Details: PP, cluster ID 8
Text: To comprehensively characterize small intestinal immune cells, Applicants generated scRNA-Seq profiles for 58,067 immune cells collected from lamina propria (LP) and Peyer's patch (PP) regions at steady state and after induction of a type 2 inflammatory reaction to ovalbumin (OVA) (Brandt et al., 2003) (FIGS. 1A and 8A). To ensure sufficient representation of rare cells, Applicants combined a normalization strategy—removing by flow sorting either a portion of IgD+ naïve B cells, which are the most abundant cell type in PPs, or all CD19+ and CD3+ T cells (FIG. 8B, Methods)—with profiling of a sufficiently large number of cells number (P>0.99 to recover at least 15 cells from each cluster, Methods) by massively parallel scRNA-seq (Haber et al., 2017) (Methods). Applicants obtained 36,797 and 21,270 high quality cells passing initial filtering (Methods) from PP and LP regions, respectively.
Overall, Applicants annotated 27 cell subsets across the two compartments, spanning T cells, B cells, ILCs, dendritic cells (DCs), myeloid cells and stromal cells, in frequencies ranging from 0.07% to 14%. Briefly, Applicants first partitioned the cells from the PP regions by unsupervised clustering (Methods) into 46 clusters, retained the 97% of cells that were robustly assigned cell identities in each cluster (Methods), assigned the cells from the LP regions to the 46 clusters using a classifier (Methods), and visualized the data with scvis (Ding et al., 2018), a deep generative model-based method (FIGS. 1B and 8C, Methods). Next, Applicants identified genes that were differentially expressed between the cells in each cluster and the remaining cells (Table 1, Methods), as well as between pairs of clusters (Table 2), to elucidate identities of similar cell types/states. Applicants excluded from downstream analysis clusters mostly consisting of contaminants from epithelium, likely doublets, or cells with a small number of Unique Molecular Identifiers (UMIs) (FIGS. 1C and 8D), or lacking distinct markers (Methods). Altogether, Applicants retained 27 clusters spanning 85% of the cells and each associated with distinct marker genes (FIG. 8E, Methods).
To induce allergic reaction to OVA, 6 to 7 weeks old mice were sensitized twice, two weeks apart, with 50 μg of OVA plus 1 mg of aluminum potassium sulfate adjuvant via intraperitoneal injection. Two weeks later, mice were orally administered with 50 mg of OVA on every other day for a total of five times. 1 μg of α-CGRP peptide was administered simultaneously when indicated. Mice were deprived of food for 3-4 hours in cages with wood chip bedding for limiting antigen degradation in the stomach before each intragastric challenge.
Isolation of cells from Peyer's patches (PPs). Peyer's patches (PPs) were carefully dissected from the small intestine under a stereo microscope using a fine scissor, pierced once with a fine forcep. Tissues were digested in freshly made digestion buffer (RPMI-1640 containing 100 μg/ml Liberase™ and 50 μg/ml DNase I at 37° C. on a roto-mixer. After 15 min, tissues were very gently mixed using a 1 ml pipette. The supernatant was collected and added to ice-cold MACS buffer (pH 7.4; PBS plus 2% FCS and 2 mM EDTA). Pre-warmed (37° C.) fresh digestion buffer was added to the remaining tissues. After rotation at 37° C. for 15 min, the mixture was vigorously mixed using a 1 ml pipette for 1 min. Supernatants from the two steps were combined and passed through 70 μm filters and stained for FACS (below).
Isolation of cells from the lamina propria (LP). The small intestines were opened longitudinally and washed in ice-cold PBS. For scRNA-seq, roughly 0.5 cm of fragments from each of the distal, middle and proximal regions without visible PPs were collected. Epithelial cells were dissociated by tissue rotation in pre-warmed (37° C.) PBS containing 10 mM EDTA at 37° C. for 15 min, followed by additional incubation on ice for 15 min. Tissues were then shaken vigorously. […]

B1: OVA (protein, UniProt P01012 2-386, looked up)
Ovalbumin: GSIGAASMEFCFDVFKELKVHHANENIFYCPIAIMSALAMVYLGAKDSTRTQINKVVRFDKLPGFGDSIEAQCGTSVNVHSSLRDILNQITKPNDVYSFSLASRLYAEERYPILPEYLQCVKELYRGGLEPINFQTAADQARELINSWVESQTNGIIRNVLQPSSVDSQTAMVLVNAIVFKGLWEKAFKDEDTQAMPFRVTEQESKPVQMMYQIGLFRVASMASEKMKILELPFASGTMSMLVLLPDEVSGLEQLESIINFEKLTEWTSSNVMEERKIKVYLPRMKMEEKYNLTSVLMAMGITDVFSSSANLSGISSAESLKISQAVHAAHAEINEAGREVVGSAEAGVDAASVSEEFRADHPFLFCIKHIATNAVLFFGRCVSP
  Fosl2 percentage of expressing cells in OVA-treated group: 0.378
  Ftl1 percentage of expressing cells in OVA-treated group: 0.963
  Gadd45b percentage of expressing cells in OVA-treated group: 0.17
  Gimap1 percentage of expressing cells in OVA-treated group: 0.776
  Gimap6 percentage of expressing cells in OVA-treated group: 0.815
  Gimap9 percentage of expressing cells in OVA-treated group: 0.511
  Gnai2 percentage of expressing cells in OVA-treated group: 0.661
  Gramd1a percentage of expressing cells in OVA-treated group: 0.336
  Gramd3 percentage of expressing cells in OVA-treated group: 0.227
  Gzma percentage of expressing cells in OVA-treated group: 0.764
  H2-K1 percentage of expressing cells in OVA-treated group: 0.978
  H3f3b percentage of expressing cells in OVA-treated group: 0.993
  Hcst percentage of expressing cells in OVA-treated group: 0.898
  Hist1h1c percentage of expressing cells in OVA-treated group: 0.348
  Hist1h1e percentage of expressing cells in OVA-treated group: 0.176
  Icam1 percentage of expressing cells in OVA-treated group: 0.175
  Id2 percentage of expressing cells in OVA-treated group: 0.684
  Ier2 percentage of expressing cells in OVA-treated group: 0.781
  Ier5l percentage of expressing cells in OVA-treated group: 0.057
  Ifi203 percentage of expressing cells in OVA-treated group: 0.547
  Ifrd1 percentage of expressing cells in OVA-treated group: 0.276
  Igha percentage of expressing cells in OVA-treated group: 0.488
  Igkc percentage of expressing cells in OVA-treated group: 0.677
  Ikzf2 percentage of expressing cells in OVA-treated group: 0.216
  Il2rg percentage of expressing cells in OVA-treated group: 0.681
  Il16 percentage of expressing cells in OVA-treated group: 0.336
  Jun percentage of expressing cells in OVA-treated group: 0.453
  Jund percentage of expressing cells in OVA-treated group: 0.846
  Kdm2b percentage of expressing cells in OVA-treated group: 0.158
  Kdm6b percentage of expressing cells in OVA-treated group: 0.274
  Klf4 percentage of expressing cells in OVA-treated group: 0.122
  Klf6 percentage of expressing cells in OVA-treated group: 0.589
  Klrb1c percentage of expressing cells in OVA-treated group: 0.735
  Klrb1f percentage of expressing cells in OVA-treated group: 0.56
  Klrc1 percentage of expressing cells in OVA-treated group: 0.608
  Klrc2 percentage of expressing cells in OVA-treated group: 0.505
  Klrd1 percentage of expressing cells in OVA-treated group: 0.939
  Klre1 percentage of expressing cells in OVA-treated group: 0.744
  Klrk1 percentage of expressing cells in OVA-treated group: 0.873
  Lax1 percentage of expressing cells in OVA-treated group: 0.286
  Litaf percentage of expressing cells in OVA-treated group: 0.339
  Lmna percentage of expressing cells in OVA-treated group: 0.089
  Maff percentage of expressing cells in OVA-treated group: 0.251
  Mcpt1 percentage of expressing cells in OVA-treated group: 0.209
  Mir142hg percentage of expressing cells in OVA-treated group: 0.161
  Ms4a4b percentage of expressing cells in OVA-treated group: 0.953
  Ms4a6b percentage of expressing cells in OVA-treated group: 0.419
  Myl6 percentage of expressing cells in OVA-treated group: 0.987
  Nabp1 percentage of expressing cells in OVA-treated group: 0.702
  Ncr1 percentage of expressing cells in OVA-treated group: 0.964
  Ndel1 percentage of expressing cells in OVA-treated group: 0.216
  Neat1 percentage of expressing cells in OVA-treated group: 0.503
  Neurl3 percentage of expressing cells in OVA-treated group: 0.388
  Nfil3 percentage of expressing cells in OVA-treated group: 0.365
  Nfkb1 percentage of expressing cells in OVA-treated group: 0.374
  Nfkbia percentage of expressing cells in OVA-treated group: 0.614
  Nfkbid percentage of expressing cells in OVA-treated group: 0.146
  Nfkbie percentage of expressing cells in OVA-treated group: 0.111
  Nfkbiz percentage of expressing cells in OVA-treated group: 0.358
  Ninj1 percentage of expressing cells in OVA-treated group: 0.125
  Nkg7 percentage of expressing cells in OVA-treated group: 0.985
  Nr4a1 percentage of expressing cells in OVA-treated group: 0.561
  Nr4a2 percentage of expressing cells in OVA-treated group: 0.348
  Nr4a3 percentage of expressing cells in OVA-treated group: 0.157
  Odc1 percentage of expressing cells in OVA-treated group: 0.202
  P2ry10 percentage of expressing cells in OVA-treated group: 0.374
  Phlda1 percentage of expressing cells in OVA-treated group: 0.134
  Pim1 percentage of expressing cells in OVA-treated group: 0.677
  Pnrc1 percentage of expressing cells in OVA-treated group: 0.769
  Ppp1r15a percentage of expressing cells in OVA-treated group: 0.406
  Ppp1r16b percentage of expressing cells in OVA-treated group: 0.206
  Ppp3cc percentage of expressing cells in OVA-treated group: 0.268
  Prr7 percentage of expressing cells in OVA-treated group: 0.093
  Ptp4a2 percentage of expressing cells in OVA-treated group: 0.606
  Ptprcap percentage of expressing cells in OVA-treated group: 0.929
  Rab35 percentage of expressing cells in OVA-treated group: 0.207
  Rac2 percentage of expressing cells in OVA-treated group: 0.97
  Rel percentage of expressing cells in OVA-treated group: 0.139
  Rgs1 percentage of expressing cells in OVA-treated group: 0.699
  Rnf125 percentage of expressing cells in OVA-treated group: 0.167
  Rnf157 percentage of expressing cells in OVA-treated group: 0.188
  Rora percentage of expressing cells in OVA-treated group: 0.161
  Rrad percentage of expressing cells in OVA-treated group: 0.191
  Rsrp1 percentage of expressing cells in OVA-treated group: 0.559
  Samd9l percentage of expressing cells in OVA-treated group: 0.176
  Samsn1 percentage of expressing cells in OVA-treated group: 0.324
  Sh2d1a percentage of expressing cells in OVA-treated group: 0.488
  Sik1 percentage of expressing cells in OVA-treated group: 0.161
  Skil percentage of expressing cells in OVA-treated group: 0.207
  Sla percentage of expressing cells in OVA-treated group: 0.335
  Slfn2 percentage of expressing cells in OVA-treated group: 0.408
  Sp100 percentage of expressing cells in OVA-treated group: 0.537
  Taf10 percentage of expressing cells in OVA-treated group: 0.347
  Tfam percentage of expressing cells in OVA-treated group: 0.19
  Tgif1 percentage of expressing cells in OVA-treated group: 0.305
  Tm6sf1 percentage of expressing cells in OVA-treated group: 0.454
  Traf1 percentage of expressing cells in OVA-treated group: 0.464
  Tsc22d3 percentage of expressing cells in OVA-treated group: 0.664
  Tuba4a percentage of expressing cells in OVA-treated group: 0.191
  Txndc5 percentage of expressing cells in OVA-treated group: 0.239
  Txnip percentage of expressing cells in OVA-treated group: 0.398
  Ube2s percentage of expressing cells in OVA-treated group: 0.478
  VgIl4 percentage of expressing cells in OVA-treated group: 0.47
  Vps37b percentage of expressing cells in OVA-treated group: 0.79
  Zc3h12a percentage of expressing cells in OVA-treated group: 0.182
  Zfp36l2 percentage of expressing cells in OVA-treated group: 0.84
  Zfp512 percentage of expressing cells in OVA-treated group: 0.446
OVA vs PBS
  AW112010 LN (average fold change): 0.208
  AY036118 LN (average fold change): −0.339
  Actr3 LN (average fold change): 0.315
  Alyref LN (average fold change): −0.597
  Amd1 LN (average fold change): −0.426
  Arf4 LN (average fold change): −0.186
  Arfrp1 LN (average fold change): 0.609
  Arl6ip1 LN (average fold change): 0.367
  Arl6ip5 LN (average fold change): 0.344
  Arpc5l LN (average fold change): 0.383
  Arrb2 LN (average fold change): 0.295
  Ash1l LN (average fold change): 0.491
  B2m LN (average fold change): 0.159
  Bcl2 LN (average fold change): 0.286
  Bcl2a1b LN (average fold change): −0.507
  Bcl2l11 LN (average fold change): −0.208
  Bhlhe40 LN (average fold change): −0.159
  Cap1 LN (average fold change): 0.235
  Ccr2 LN (average fold change): 0.330
  Cd47 LN (average fold change): 0.262
  Cd69 LN (average fold change): −0.386
  Cd74 LN (average fold change): −0.187
  Cdk2ap1 LN (average fold change): −0.673
  Cdkn1a LN (average fold change): −0.980
  Cdv3 LN (average fold change): −0.281
  Cks2 LN (average fold change): −0.601
  Clec2d LN (average fold change): 0.391
  Coq10b LN (average fold change): −0.426
  Crem LN (average fold change): −0.681
  Csrp1 LN (average fold change): −0.437
  Ctla2a LN (average fold change): 0.372
  Cxcr4 LN (average fold change): 0.544
  Ddx21 LN (average fold change): −0.379
  Defa24 LN (average fold change): −0.967
  Dgat1 LN (average fold change): −0.352
  Dusp1 LN (average fold change): −0.244
  Eef2 LN (average fold change): 0.257
  Egr1 LN (average fold change): −0.640
  Eif4a2 LN (average fold change): 0.300
  Emb LN (average fold change): −0.223
  Fam105a LN (average fold change): 0.376
  Fasl LN (average fold change): 0.296
  Fcer1g LN (average fold change): 0.170
